Biological target: Tula virus (TULV) Gn glycoprotein on virions (Tula virus (TULV), strain Moravia)
Experiment: cryo-EM structure

**Q.** With “Tula virus (TULV) Gn glycoprotein on virions (natural protein)” as the substance, how does the stoichiometry N read?
**A.** 4
